Reference: publication PMC3034952 (Enzyme Research, 2011)

Legend:
Assay in all cases: SEC; purified recombinant AtPDC E1 on a Superose 12 column in 50 mM TES-NaOH, pH 7.4, 50 mM NaCl, 0.1 mM TPP, 0.2 mM MgCl2; fractions analysed by SDS-PAGE and immunoblotting
Settings in all cases: both partners purified
[1] = molecular target: T1, AtPDC E1α D295N mutant, H6-tagged (Arabidopsis thaliana, UniProt P52901 18-389, D295N)
T1 sequence (looked up): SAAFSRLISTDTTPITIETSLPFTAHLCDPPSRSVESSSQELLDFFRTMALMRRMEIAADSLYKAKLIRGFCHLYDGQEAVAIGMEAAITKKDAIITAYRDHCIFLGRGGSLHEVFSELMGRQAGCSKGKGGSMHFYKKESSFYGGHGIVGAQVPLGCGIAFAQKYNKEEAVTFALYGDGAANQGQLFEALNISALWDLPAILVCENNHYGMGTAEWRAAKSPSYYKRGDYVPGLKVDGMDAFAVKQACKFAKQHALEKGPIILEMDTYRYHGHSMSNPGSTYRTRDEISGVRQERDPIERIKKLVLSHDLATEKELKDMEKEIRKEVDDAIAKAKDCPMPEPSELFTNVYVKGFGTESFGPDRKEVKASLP

[2] = molecular target: T2, AtPDC E1α D295A mutant, H6-tagged (Arabidopsis thaliana, UniProt P52901 18-389, D295A)
T2 sequence (looked up): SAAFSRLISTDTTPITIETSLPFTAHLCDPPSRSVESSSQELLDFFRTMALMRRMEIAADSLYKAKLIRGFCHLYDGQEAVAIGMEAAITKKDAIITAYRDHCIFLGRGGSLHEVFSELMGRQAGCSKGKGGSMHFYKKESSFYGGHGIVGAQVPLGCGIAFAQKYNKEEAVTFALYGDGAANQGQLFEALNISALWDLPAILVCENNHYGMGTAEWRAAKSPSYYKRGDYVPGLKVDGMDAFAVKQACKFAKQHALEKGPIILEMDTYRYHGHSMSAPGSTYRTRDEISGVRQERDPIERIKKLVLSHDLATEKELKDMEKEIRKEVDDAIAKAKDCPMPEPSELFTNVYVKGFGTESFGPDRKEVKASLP

[3] = molecular target: T3, AtPDC E1α D295L mutant, H6-tagged (Arabidopsis thaliana, UniProt P52901 18-389, D295L)
T3 sequence (looked up): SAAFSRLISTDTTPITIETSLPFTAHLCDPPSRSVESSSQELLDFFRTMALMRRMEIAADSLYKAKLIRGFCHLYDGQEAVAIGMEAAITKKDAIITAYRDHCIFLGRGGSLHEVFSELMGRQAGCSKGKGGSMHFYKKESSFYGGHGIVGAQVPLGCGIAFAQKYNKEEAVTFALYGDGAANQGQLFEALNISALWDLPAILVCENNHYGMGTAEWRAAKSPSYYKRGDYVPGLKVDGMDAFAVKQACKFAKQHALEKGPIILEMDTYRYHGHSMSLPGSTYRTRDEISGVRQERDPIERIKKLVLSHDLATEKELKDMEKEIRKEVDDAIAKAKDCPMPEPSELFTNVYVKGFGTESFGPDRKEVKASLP

[4] = molecular target: T4, AtPDC E1α S292A mutant, H6-tagged (Arabidopsis thaliana, UniProt P52901 18-389, S292A)
T4 sequence (looked up): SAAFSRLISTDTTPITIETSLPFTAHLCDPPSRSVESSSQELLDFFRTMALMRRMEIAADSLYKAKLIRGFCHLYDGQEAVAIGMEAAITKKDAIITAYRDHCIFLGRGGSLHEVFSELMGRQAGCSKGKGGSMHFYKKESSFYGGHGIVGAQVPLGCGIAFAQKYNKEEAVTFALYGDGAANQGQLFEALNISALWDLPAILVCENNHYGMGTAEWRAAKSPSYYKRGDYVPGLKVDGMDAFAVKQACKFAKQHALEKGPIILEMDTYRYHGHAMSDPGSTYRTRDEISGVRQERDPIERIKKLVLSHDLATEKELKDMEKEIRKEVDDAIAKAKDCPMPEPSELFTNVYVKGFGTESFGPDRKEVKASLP

[5] = molecular target: T5, AtPDC E1α S298A mutant, H6-tagged (Arabidopsis thaliana, UniProt P52901 18-389, S298A)
T5 sequence (looked up): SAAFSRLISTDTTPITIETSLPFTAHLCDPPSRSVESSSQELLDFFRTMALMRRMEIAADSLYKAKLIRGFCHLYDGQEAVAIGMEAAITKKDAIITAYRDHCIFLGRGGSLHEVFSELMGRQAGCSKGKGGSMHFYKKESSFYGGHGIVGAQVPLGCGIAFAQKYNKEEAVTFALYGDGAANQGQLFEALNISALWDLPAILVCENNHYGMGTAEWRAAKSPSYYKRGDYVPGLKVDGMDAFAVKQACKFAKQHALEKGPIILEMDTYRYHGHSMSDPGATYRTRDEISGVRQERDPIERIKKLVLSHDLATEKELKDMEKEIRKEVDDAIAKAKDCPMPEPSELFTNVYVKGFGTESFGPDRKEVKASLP

- binding result [1]: binds
- binding result [2]: binds
- binding result [3]: binds
- binding result [4]: binds
- binding result [5]: binds
B1: Arabidopsis thaliana mitochondrial pyruvate dehydrogenase E1β subunit (AtPDC E1β), FLAG-tagged (enzyme, UniProt Q38799 30-363, looked up)
chain: AAGAKEMTVRDALNSAIDEEMSADPKVFVMGEEVGQYQGAYKITKGLLEKYGPERVYDTPITEAGFTGIGVGAAYAGLKPVVEFMTFNFSMQAIDHIINSAAKSNYMSAGQINVPIVFRGPNGAAAGVGAQHSQCYAAWYASVPGLKVLAPYSAEDARGLLKAAIRDPDPVVFLENELLYGESFPISEEALDSSFCLPIGKAKIEREGKDVTIVTFSKMVGFALKAAEKLAEEGISAEVINLRSIRPLDRATINASVRKTSRLVTVEEGFPQHGVCAEICASVVEESFSYLDAPVERIAGADVPMPYAANLERLALPQIEDIVRASKRACYRSK
